Assay results taken from paper PMC12800137.

Target: E4F1 (UniProt Q66K89)
Assay: co-IP, immunoblot
Settings: reference: PA28γ wild type; sites T23

binding against the reference: weaker
Substance: PA28γ (from UniProt P61289) T23A
